Experimental data published in US5876710A, “Compounds and compositions for delivering active agents” (Emisphere Technologies Inc., priority 1997, dated 1999).

Set-up: species or system Rats
Settings: rat, in vivo, po, 1 mg/kg

interferon
Mean peak serum interferon concentration: 1951±1857
